Reference: a protein production outcome set (Wang et al. 2014)

Test: label from the status in PepcDB records
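Also: failed if final PepcDB status was selected cloned or expressed and not failed if soluble or beyond.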

Sequence | protein production
MIRLGLTSFSEHDYLTGKKRSTLYEYASHLPLVEMDTAYYGIPPKERVAEWVKAVPENFRFVMKVYSGISCQGEWQTYYASEEEMITAFLESMAPLIESKKLFAFLVQFSGTFGCTKENVAYLQKIRHWFKDLPIAIELRNNSWYQPNFVKQMLQFMKENQFSLVIVDEPQIPTNPVPFYPYVTNPNLVLFRFHGRNAAGWLANDAEWRKKRTLYHYNTQEIADLSEAVLKMSQEAKEVGVIFNNNSGGDAAENALQMQKVLNLSYDDLNPKQLDLF | not failed
MIRLPRAGTVLAVRGTAARSRRRLSTMARMPDTNTTDLWERRTQGPLLALAVLFAVAYALPVVMPDAPEQLLFACHVANWVVWAAFAIDYAVRLWLSEDRLRFVRSHPLALLAVLLPLLRPLRLLKLVSMLLLAGQRARMASQVRVTTYVAGSCLGLLVFGALAVLEVERGRPGASIQTLGDALWWAFTTMTTVGYGDMAPTTGLGRLLAIGLMLSGIALLGVVTANIAAWFISRFERDDAEERRQTAAIEALTEEVRALRAQVATLRAPQGAPSELNVLPAPTREHD | failed
MIRLTIEETNLLSIYNEGGKRGLMENINAALPFMDEDMRELAKRTLAKIAPLTENEYAELAIFAADEVLEHHHHHH | not failed
MIRNASIINVFRVSLALIVIVASASSLSAFWLLEKSEQDAELINVAGSHRMKAYKFALQLSSGKKVQASETAQEIDTLWEQPLLHRHFVKAGGSIQQLAKDARTEWQRVHSEIAEQDFARFSQQQSNAIDNYVNQLDTLVGQLQEHSERRMETVRSSLALASFFIVAIFFFLLTVLKRKINQPLRHLLAVSKRLGQGDFTAKSKIDNEDEIGQLSRTMNKMSETVSYFYGGLERRVEQQTQELSRKNKVLSFLYDTARSIIVHSYDYNNYQQVIEKLYEIGEVNDIELCLLTEEGNRPFLQLQPRPSSHEPCEAGDCATCLKAGPGASVIEDKLVYRFVLKREDQNYGVLIVRCEQGQPLATWQQQLMSSTADQLALSQSLKSEEEQVRRLALMHERTVIARELHDSLAQALSYLKIQVTRLHKGIEKNDRATIDDVSNELREGLNSAYRQLRELLTTFRLKVDGSGLYSALQTTVKQLTEQSNMVVHLDYRLNNIPLVPHEEIHLLQIIREASQNAVNHSQGSEVHISLSQPSGQDVELKITDDGIGLPENAEKVNHYGLAIMQERSRNLGGEIKISRLESGGTEVCFTFTPDYLLQ | failed
MIRNLYNKIKNCKLKIAAIILLIFLIVTGYIYYSRYFYVLRSPQRVKEFILSYGKFGFFAFFVMQMLQVVAFFIPGEIIQIAGGYIFGTFWGTVISLLGITAGSAVAFYLSNKLGRPFVKKISGKQNISFFEKLIKNGEIKYVITLIYLVPGLPKDILAYVCGITDLSLKDFIIYSTIGRFPGIFISAYFGNTITHGNIKMMVIIAVISVVLFGLGVFKGKYLLTKISSIRSKKQK | failed
MIRNVLKLLALLADEIVIVALVIIFLRRVSARLAVIVGGALILFNLFLVKLLWGTLKKKAEVGAEALIGEKAVVVEDLNPVGLVKVKNELWTAECISGTARRGEKVRIVQVKGAKLLVEKDDNAGKFL | failed
MIRVTFLPDQVSVEATAGEAWLSVAARAGVEIPTGCRMGSCGACTLELEDGQEIRACISTIAGDRDPAPLEDCPHITAYVFRDPTW | failed
MISASWKSAGKTTVSLGLLRLLAENGVPVVSFKKGPDYIDPMWHRVASSGECYNLDTWMMGEAACRDTFIRNCARRPGSIALIEGNHGLHDGMDMAGADSSAGLAALLDAPVLLVIDSRRMNRGVAAQVLGLQAMPPKVRIAGVILNHVTSSRQESKQRAAIETFCNVPVLGAIPADSSLLLPERHLGLVTVGEASDAEAFIRVAAQQVERHCDFAAIRKLFEEASPLSHSEPREVFSPKKEATVKIGVFRDAAFCFYYPDNLDALRDAGAELVFIDTFKTTALPEIDGLYLGGGFPESFFAELSANTSLLRDMRGRIEAGIPAWAECGGLIYLCRSATWEGRQWPLASVLPIDIAYQRKPAGCGYLELESRAGSGWFPVGERVRAHEFHYSKPVAGNVDLACQFDVARGFGLTGREDGLLYRNLFASYAHFHAAANPGWAERFVGLALKFKEQGRLERD | failed
